From paper PMC11978871, “PACT prevents aberrant activation of PKR by endogenous dsRNA without sequestration” (Nature Communications, 2024) come the findings set out here.

Data set [1] concerns the molecule itself. Kind of data set: NMR structure; PACT D3 in 20 mM HEPES pH 7.5, 50 mM KCl, 2 mM DTT, 30 °C; inter-chain NOEs from a mixed-isotope sample (0.4 mM each protomer).
The target in data set [2] is T1, PKR K296R (UniProt P19525 1-551, K296R). Kind of data set: SEC-MALS; 3 PKR per dsRNA; EMSA: 20 mM HEPES pH 7.5, 150 mM NaCl, 2 mM DTT, RT 15 min, 0.2 ng/ul 32P-112 bp dsRNA, 0-4000 nM protein, Bis-Tris native PAGE; smFRET buffer not in material. The following applies: protein: recombinant; tags: pET29b; Cy5-labeled in smFRET; blunt. In general terms: In gel filtration, larger molecules generally elute earlier.

Data set [3] deals with T1, PKR K296R. Kind of data set: SEC-MALS; 4 PKR per dsRNA; EMSA: 20 mM HEPES pH 7.5, 150 mM NaCl, 2 mM DTT, RT 15 min, 0.2 ng/ul 32P-112 bp dsRNA, 0-4000 nM protein, Bis-Tris native PAGE; smFRET buffer not in material. The following applies: protein: recombinant; tags: pET29b; Cy5-labeled in smFRET; blunt.

T1 sequence (P19525 whole entry K296R): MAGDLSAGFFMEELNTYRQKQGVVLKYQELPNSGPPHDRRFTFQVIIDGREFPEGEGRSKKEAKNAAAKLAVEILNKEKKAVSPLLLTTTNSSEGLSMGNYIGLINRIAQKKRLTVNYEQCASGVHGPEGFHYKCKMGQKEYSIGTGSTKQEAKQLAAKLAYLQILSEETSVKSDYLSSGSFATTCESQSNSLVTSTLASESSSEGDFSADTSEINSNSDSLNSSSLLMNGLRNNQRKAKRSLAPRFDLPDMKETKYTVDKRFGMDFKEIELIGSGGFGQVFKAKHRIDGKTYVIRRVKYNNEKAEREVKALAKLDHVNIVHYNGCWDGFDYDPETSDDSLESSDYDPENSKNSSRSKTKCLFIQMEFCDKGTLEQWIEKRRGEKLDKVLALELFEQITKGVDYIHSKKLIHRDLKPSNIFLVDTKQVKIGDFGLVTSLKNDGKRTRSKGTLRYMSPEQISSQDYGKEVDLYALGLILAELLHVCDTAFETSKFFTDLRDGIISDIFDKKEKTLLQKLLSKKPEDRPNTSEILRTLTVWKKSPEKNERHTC

B1: PACT DRBD3 (residues 235-313) (domain or fragment, UniProt O75569 235-313, looked up)
chain: SIPNTDYIQLLSEIAKEQGFNITYLDIDELSANGQYQCLAELSTSPITVCHGSGISCGNAQSDAAHNALQYLKIIAERK
modifications: isotope-labelled (15N, 13C, ~85% 2H; for the mixed sample 15N,2H-labelled and 13C-labelled protomers)
notes: PACT DRBD3, residues 235-313, in pET47b between BamHI and SalI; Homodimer in the NMR structure; also called PACT D3; source: E. coli BL21(DE3) in M9 minimal media, purified (Ni-NTA, SEC)
One may read the stoichiometry N as the number of molecules, sites or subunits per partner or assembly. As for B1, the “stoichiometry N” value in data set [1] is 2.

B2: 42 bp dsRNA (dsRNA)
RNA 1: GGGAGAAUGUCGAAUGGGUAUUCCACAGACGAGAAUUCUCCC
RNA 2: GGGAGAAUUCUCGUCUGUGGAAUACCCAUUCGACAUUCUCCC
For B2, the binding result with PKR K296R [2] is “binds”.

B3: 62 bp dsRNA (dsRNA)
RNA 1: GGGAGAAUGUCGAAUGGGUAUUCCACAGACGAGAAUUUCCGCUAUCUCAUCUCGUGUCUCCC
RNA 2: GGGAGACACGAGAUGAGAUAGCGGAAAUUCUCGUCUGUGGAAUACCCAUUCGACAUUCUCCC
In the case of B3, the binding result with PKR K296R [3] is listed as “binds”.
